In US20210115127A1 (SURFACE ONCOLOGY, published 2021):
Where a chain is given by its changes, count along the chain named.

B1: anti-IL-27 Ab3 (antibody, V domains shown)
VH: EVQLVESGGGLVKPGGSLRLSCAASGFTFRSYGMNWVRQAPGKGLEWVSSISSSSSYIYYADSVKGRFTISRDNAKNSLYLQMNSLRAEDTAVYYCARDGGRTSYTATAHNWFDPWGQGTLVTVSS
VL: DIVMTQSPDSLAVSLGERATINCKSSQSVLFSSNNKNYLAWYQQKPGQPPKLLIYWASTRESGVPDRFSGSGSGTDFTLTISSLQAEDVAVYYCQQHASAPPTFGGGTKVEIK
B2: anti-IL-27 Ab1 (antibody, V domains shown)
VH: B1 VH with S50G, S55G
VL: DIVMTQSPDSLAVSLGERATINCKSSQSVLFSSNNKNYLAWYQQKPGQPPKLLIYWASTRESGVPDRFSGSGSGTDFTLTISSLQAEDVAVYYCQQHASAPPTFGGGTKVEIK
B3: recombinant human IL-27 (heterodimer of IL-27p28 and EBI3) (ligand)
chain 1: FPRPPGRPQLSLQELRREFTVSLHLARKLLSEVRGQAHRFAESHLPGVNLYLLPLGEQLPDVSLTFQAWRRLSDPERLCFISTTLQPFHALLGGLGTQGRWTNMERMQLWAMRLDLRDLQRHLRFQVLAAGFNLPEEEEEEEEEEEEERKGLLPGALGSALQGPAQVSWPQLLSTYRLLHSLELVLSRAVRELLLLSKAGHSVWPLGFPTLSPQP
chain 2: RKGPPAALTLPRVQCRASRYPIAVDCSWTLPPAPNSTSPVSFIATYRLGMAARGHSWPCLQQTPTSTSCTITDVQLFSMAPYVLNVTAVHPWGSSSSFVPFITEHIIKPDPPEGVRLSPLAERQLQVQWEPPGSWPFPEIFSLKYWIRYKRQGAARFHRVGPIEATSFILRAVRPRARYYVQVAAQDLTDYGELSDWSLPATATMSLGK
notes: Bought recombinant protein (R&D Systems 2526-IL) in the cell and ForteBio assays; also called rhIL-27
B4: human EBI3 subunit (ligand)
chain: B3 chain 2
B5: human IL-27p28 subunit (ligand)
chain: B3 chain 1

Key:
[1] = biological target: B3; assay: cell-based or functional assay
recombinant rat IL-27 = biological target: T1, recombinant rat IL-27 (rat, UniProt D3ZPW3 29-234; M0RD76 19-228); assay: cell-based or functional assay
T1 sequence (alpha): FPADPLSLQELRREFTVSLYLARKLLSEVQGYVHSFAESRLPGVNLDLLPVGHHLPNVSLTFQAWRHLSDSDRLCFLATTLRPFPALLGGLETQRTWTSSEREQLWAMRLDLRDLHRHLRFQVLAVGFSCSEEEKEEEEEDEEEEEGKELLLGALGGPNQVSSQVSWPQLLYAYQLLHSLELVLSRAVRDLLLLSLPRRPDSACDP
T1 sequence (beta): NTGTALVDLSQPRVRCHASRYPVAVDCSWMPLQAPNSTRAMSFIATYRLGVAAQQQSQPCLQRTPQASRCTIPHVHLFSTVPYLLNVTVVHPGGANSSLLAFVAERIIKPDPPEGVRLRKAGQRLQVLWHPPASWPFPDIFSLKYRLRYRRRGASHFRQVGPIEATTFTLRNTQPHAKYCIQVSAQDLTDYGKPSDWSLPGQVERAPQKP

recombinant mouse IL-27 = biological target: T2, recombinant mouse IL-27 (mouse, UniProt Q8K3I6 29-234; O35228 19-228); assay: cell-based or functional assay
T2 sequence (looked up) 1: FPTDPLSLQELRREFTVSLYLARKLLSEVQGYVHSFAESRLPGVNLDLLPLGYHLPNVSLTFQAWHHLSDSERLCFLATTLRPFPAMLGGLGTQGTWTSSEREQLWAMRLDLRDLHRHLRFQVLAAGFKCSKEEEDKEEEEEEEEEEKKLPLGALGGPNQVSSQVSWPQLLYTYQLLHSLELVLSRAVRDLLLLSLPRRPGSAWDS
T2 sequence (looked up) 2: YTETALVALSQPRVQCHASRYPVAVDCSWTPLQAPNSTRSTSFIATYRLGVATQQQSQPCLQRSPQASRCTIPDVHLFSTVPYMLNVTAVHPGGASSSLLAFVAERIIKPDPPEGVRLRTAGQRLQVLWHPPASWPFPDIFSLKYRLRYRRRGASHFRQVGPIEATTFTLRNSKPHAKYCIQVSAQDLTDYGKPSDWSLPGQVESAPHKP

[2] = biological target: B3; assay: cell-based or functional assay; remark: listed apart in the source
[3] = biological target: T3, recombinant cynomolgus monkey IL-27 (cynomolgus monkey, UniProt A0A2K5UBM6 29-244; A0A2K5WPB7 36-244); assay: cell-based or functional assay
T3 sequence (alpha): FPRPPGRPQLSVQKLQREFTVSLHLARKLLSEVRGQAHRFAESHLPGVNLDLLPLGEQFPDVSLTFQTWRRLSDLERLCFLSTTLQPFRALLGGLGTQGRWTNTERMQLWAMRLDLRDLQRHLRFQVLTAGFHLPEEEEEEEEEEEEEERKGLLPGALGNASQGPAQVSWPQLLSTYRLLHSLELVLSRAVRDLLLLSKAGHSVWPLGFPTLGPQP
T3 sequence (beta): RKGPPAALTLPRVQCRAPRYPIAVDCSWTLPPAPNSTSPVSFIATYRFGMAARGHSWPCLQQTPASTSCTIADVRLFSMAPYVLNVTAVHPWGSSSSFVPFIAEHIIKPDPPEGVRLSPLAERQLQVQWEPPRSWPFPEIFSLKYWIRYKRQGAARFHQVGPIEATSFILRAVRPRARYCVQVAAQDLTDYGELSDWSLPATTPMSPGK

gp130 [4] = biological target: T4, gp130 (human, UniProt P40189 23-619, limits assumed); assay: SPR on gp130; trace (2), rhIL-27 alone, and trace (1), rhIL-27 + Anti-IL-27 Ab1, both rise to about 45 RU
T4 construct: also called IL6ST; Interleukin-6 Signal Transducer
T4 sequence: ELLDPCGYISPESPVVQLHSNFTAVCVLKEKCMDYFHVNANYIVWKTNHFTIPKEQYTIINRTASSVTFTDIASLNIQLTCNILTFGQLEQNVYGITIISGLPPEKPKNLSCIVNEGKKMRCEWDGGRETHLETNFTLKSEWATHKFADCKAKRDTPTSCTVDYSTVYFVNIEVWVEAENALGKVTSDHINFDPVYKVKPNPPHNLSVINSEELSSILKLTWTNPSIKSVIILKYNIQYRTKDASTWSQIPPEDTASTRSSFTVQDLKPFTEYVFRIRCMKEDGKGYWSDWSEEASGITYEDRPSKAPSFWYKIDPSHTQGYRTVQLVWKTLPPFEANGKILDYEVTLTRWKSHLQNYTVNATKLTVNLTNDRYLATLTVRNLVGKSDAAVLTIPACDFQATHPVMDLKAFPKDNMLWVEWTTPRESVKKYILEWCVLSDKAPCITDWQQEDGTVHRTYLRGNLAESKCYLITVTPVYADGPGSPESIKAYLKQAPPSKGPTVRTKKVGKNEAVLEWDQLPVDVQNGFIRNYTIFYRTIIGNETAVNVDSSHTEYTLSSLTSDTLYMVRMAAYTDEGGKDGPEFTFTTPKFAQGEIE

gp130 [5] = biological target: T4, gp130; assay: Drawn table Ligand / Analyte / Result, ligand gp130, analyte IL-27 heterodimer; method not named for this figure (SPR is used in the same example)
IL-27RA (WSX-1) [6] = biological target: T5, IL-27RA (WSX-1) (human, UniProt Q6UWB1 33-516, limits assumed); assay: SPR on WSX-1; trace (2), rhIL-27 alone, rises to about 210 RU; trace (1), rhIL-27 + Anti-IL-27 Ab1, stays at or below 0 RU
T5 construct: also called IL-27Rα; IL-27 receptor subunit alpha
T5 sequence: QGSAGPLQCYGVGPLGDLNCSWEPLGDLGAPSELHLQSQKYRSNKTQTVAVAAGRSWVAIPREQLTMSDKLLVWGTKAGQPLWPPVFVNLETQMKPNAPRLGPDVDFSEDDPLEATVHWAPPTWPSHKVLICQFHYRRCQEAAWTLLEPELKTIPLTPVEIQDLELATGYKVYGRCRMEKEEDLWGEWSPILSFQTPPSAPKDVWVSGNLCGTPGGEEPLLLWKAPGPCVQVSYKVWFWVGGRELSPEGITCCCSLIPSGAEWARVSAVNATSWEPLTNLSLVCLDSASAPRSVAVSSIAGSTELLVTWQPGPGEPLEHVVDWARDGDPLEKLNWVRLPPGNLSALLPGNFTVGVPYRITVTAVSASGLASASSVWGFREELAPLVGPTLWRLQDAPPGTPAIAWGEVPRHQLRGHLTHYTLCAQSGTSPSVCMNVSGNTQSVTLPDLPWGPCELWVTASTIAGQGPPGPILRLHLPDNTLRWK

IL-27RA (WSX-1) [7] = biological target: T5, IL-27RA (WSX-1); assay: Drawn table Ligand / Analyte / Result, ligand WSX-1, analyte EBI3 alone; method not named for this figure (SPR is used in the same example)
human IL-27p28 subunit [8] = biological target: B5; assay: binding affinity data of FIG. 17; method not stated
human IL-27p28 subunit [9] = biological target: B5; assay: Drawn table Ligand / Analyte / Result, ligand p28 held by Anti-IL-27 Ab3 (anti-p28), analyte EBI3; method not named for this figure (SPR is used in the same example)
gp130 [10] = biological target: T4, gp130; assay: Drawn table Ligand / Analyte / Result, ligand gp130, analyte p28 alone; method not named for this figure (SPR is used in the same example)

For B1, the “IC50, inhibition of phosphorylation of STAT1 in HUT-78 cells (flow cytometry)” value [1] was 0.08 µg/mL, the “IC50, inhibition of phosphorylation of STAT1 in U937 cells (flow cytometry)” value [1] was 0.081 µg/mL and the “IC50, inhibition of phosphorylation of STAT1 in pooled human PBMCs (flow cytometry)” value [1] was 0.141 µg/mL.

In the case of B2, the “IC50, inhibition of phosphorylation of STAT1 in HUT-78 cells (flow cytometry)” value [1] is reported as 0.095 µg/mL, the “IC50, inhibition of phosphorylation of STAT1 in U937 cells (flow cytometry)” value [1] is reported as 0.096 µg/mL and the “IC50, inhibition of phosphorylation of STAT1 in pooled human PBMCs (flow cytometry)” value [1] is reported as 0.0583 µg/mL. The “Average IC50, ng/mL; IL-27 pSTAT1 signaling inhibition in peripheral blood T cells, rat” value (recombinant rat IL-27) was 273 ng/mL, the “Average IC50, ng/mL; IL-27 pSTAT1 signaling inhibition in peripheral blood T cells, mouse” value (recombinant mouse IL-27) was 1720 ng/mL and the “Average IC50, ng/mL; IL-27 pSTAT1 signaling inhibition in peripheral blood T cells, human” value [2] was 78.4 ng/mL. For the same binder, the “Average IC50, ng/mL; IL-27 pSTAT1 signaling inhibition in peripheral blood T cells, cynomolgus monkey” value [3] was 118 ng/mL.

B3 showed a Kd (gp130 [4]) of 4.1 nM, a Kd (gp130 [5]) of 34 nM and a Kd (IL-27RA (WSX-1) [6]) of 0.0206 nM.

For B4, the Kd (IL-27RA (WSX-1) [7]) was 3.81 nM, the Kd (human IL-27p28 subunit [8]) was 5 nM and the Kd (human IL-27p28 subunit [9]) was 5.07 nM.

In the case of B5, the Kd (gp130 [10]) is reported as roughly 1000 nM.
